The chains are these.
T1: Recombinant Human MMP-17 Protein, CF (human, UniProt Q9ULZ9 36-565)
T1 chain: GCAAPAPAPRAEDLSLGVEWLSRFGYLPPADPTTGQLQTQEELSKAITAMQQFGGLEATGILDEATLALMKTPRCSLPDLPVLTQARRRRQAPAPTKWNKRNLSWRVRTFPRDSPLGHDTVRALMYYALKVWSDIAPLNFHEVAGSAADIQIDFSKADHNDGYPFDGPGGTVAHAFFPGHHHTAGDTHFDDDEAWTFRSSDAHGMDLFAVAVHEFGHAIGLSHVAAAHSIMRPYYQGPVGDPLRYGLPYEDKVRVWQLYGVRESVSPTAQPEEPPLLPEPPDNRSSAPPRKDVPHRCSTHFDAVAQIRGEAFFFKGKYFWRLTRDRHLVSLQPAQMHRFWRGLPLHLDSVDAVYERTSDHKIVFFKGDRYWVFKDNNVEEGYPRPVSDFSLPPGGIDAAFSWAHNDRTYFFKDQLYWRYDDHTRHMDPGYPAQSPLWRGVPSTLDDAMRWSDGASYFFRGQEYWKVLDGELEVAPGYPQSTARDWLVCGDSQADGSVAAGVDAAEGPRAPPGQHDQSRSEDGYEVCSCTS

T2: APMA-activated human MMP-1 enzyme active domain (human, UniProt P03956 100-269)
T2 chain: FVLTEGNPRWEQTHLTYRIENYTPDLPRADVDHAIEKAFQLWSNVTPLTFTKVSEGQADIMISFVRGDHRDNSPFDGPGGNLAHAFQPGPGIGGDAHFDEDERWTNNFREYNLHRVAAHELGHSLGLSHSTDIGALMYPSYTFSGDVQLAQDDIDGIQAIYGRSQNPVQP

T3: ADAM17 (catalytic domain) (human), (recombinant) (His-tag) (human, UniProt P78536 215-477)
T3 chain: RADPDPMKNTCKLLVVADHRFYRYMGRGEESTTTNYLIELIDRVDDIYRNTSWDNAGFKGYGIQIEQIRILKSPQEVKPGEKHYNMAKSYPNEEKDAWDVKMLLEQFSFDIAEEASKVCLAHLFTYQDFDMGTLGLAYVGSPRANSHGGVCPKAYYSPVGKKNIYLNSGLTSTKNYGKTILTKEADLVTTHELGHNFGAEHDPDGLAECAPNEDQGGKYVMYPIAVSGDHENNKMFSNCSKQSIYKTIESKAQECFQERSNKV

T4: MMP-2, active, Human, Recombinant, CHO Cells (human, UniProt P08253 110-660)
T4 chain: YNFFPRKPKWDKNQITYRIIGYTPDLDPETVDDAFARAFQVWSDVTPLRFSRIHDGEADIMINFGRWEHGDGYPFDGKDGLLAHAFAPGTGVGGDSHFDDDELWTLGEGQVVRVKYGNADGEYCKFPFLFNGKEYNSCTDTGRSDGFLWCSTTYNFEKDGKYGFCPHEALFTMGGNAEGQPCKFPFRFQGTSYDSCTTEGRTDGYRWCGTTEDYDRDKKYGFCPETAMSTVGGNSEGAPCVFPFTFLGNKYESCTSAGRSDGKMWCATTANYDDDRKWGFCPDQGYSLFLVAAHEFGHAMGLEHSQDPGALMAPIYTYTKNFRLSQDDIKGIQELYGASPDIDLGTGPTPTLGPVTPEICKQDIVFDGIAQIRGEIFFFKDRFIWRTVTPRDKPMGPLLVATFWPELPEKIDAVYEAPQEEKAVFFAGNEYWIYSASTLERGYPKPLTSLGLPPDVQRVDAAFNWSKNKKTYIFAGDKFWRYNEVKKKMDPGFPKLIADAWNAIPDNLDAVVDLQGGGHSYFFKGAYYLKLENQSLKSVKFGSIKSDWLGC

B1: active MMP-9-binding peptide M91004 (designed binder)
chain: GSGMKETAAAKFERQHMDSPDLGTDDDDKAMADIGSANSDPQFGLFSKYRTPNCRQRKGPSCQMAFQPVCGSDMSTYANECTLCMKIREGGHNIKIIRNGPCGASAAA
B2: active MMP-9-binding peptide M91005 (designed binder)
chain: B1 chain with Q56K, K58G, A65S, F66Y, Q67N
B3: active MMP-9-binding peptide M91012 (designed binder)
chain: B1 chain with Q56V, K58G, A65S, Q67N
B4: active MMP-9-binding peptide M91001 (designed binder)
chain: B1 chain with R55Q, Q56R, R57G, K58I, A65S, F66Y, Q67K
B5: active MMP-9-binding peptide M91010 (designed binder)
chain: B1 chain with Q56K, R57V, K58G, G59E, S61A, A65S, Q67N
B6: active MMP-9-binding peptide M91002 (designed binder)
chain: B1 chain with Q56T, R57G, K58R, S61A, A65G
B7: active MMP-9-binding peptide M91011 (designed binder)
chain: B1 chain with R55M, Q56M, R57Y, G59Y, P60A, S61Q, Q63S, M64H, A65K, F66S
B8: active MMP-9-binding peptide M91014 (designed binder)
chain: GSGMKETAAAKFERQHMDSPDLGTDDDDKAMADIGSANSDPQFGLFSKYRTPNCVMYKYAQCSHKYKPVCGSDMSTYANECTLCMKIREGGHNIKIIRNGPCGASAAA

Substitutions are numbered along the chain they refer to. Bounds are passed on as bounds.

Chain of MT2-MMP, Catalytic Domain, Human, Recombinant, E. coli (P51511 132-304): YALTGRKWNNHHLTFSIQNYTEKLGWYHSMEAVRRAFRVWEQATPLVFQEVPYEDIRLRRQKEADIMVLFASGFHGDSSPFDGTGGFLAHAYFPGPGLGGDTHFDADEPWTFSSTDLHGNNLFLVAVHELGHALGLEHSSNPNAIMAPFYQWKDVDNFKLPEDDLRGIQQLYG
Chain of biotin-labeled active hMMP-9(cat)_FLAG_Avi (P14780 other isoform, or with tags, fused parts or gaps): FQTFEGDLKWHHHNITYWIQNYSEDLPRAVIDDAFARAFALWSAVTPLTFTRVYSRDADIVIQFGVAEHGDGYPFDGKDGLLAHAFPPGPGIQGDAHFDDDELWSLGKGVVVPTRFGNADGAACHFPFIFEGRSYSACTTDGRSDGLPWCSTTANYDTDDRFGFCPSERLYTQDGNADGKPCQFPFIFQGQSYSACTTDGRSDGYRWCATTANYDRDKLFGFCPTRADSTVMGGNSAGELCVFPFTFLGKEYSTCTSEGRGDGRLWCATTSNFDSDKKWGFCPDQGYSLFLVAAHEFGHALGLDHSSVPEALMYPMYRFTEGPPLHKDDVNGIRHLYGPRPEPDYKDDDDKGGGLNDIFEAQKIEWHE
Chain of MMP-12 (catalytic domain) (human), (recombinant) (P39900 106-263): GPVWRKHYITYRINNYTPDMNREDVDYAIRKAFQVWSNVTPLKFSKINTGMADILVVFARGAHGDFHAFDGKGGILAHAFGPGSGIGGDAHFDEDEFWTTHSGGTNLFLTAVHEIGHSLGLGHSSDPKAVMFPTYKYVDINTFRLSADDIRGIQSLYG
Chain of active hMMP-9(cat)_His6 (P14780 107-449): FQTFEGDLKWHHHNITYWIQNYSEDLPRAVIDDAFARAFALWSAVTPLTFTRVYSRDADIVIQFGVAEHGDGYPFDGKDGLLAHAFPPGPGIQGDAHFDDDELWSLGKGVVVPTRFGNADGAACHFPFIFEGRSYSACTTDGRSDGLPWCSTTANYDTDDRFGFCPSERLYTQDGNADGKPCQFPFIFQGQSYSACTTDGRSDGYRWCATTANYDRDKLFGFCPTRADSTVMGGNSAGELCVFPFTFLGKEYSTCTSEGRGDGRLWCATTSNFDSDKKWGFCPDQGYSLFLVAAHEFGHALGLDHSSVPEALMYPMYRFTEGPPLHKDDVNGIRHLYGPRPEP
Chain of APMA-activated human MMP-8 enzyme active domain (P22894 101-262): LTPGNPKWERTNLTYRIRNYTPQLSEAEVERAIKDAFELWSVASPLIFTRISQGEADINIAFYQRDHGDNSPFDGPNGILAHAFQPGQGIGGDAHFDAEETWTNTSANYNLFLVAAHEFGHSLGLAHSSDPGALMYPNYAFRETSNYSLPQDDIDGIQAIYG
Chain of active hMMP-9(cat)_R424T (P14780 107-449 R424T): as the sequence (P14780 107-449) above, with R318T counted along it

One experiment concerns the target biotin-labeled active hMMP-9(cat)_FLAG_Avi (UniProt P14780 107-449, biotin on the Avi tag (biotin ligase BirA)). Put plainly: ELISA.
The molecule B1 returned an EC50 of 42 nM.

On to B2, for which a half-maximal response (EC50) required 46 nM.

For the molecule B3, the EC50 was found to be 46 nM.

The molecule B4 displayed a concentration for a half-maximal effect (EC50) of 22 nM.

Turning to B5, the EC50 was 48 nM.

For the molecule B6, the EC50 worked out at 47 nM.

B7 yielded an EC50 of 16 nM.

The molecule B8 yielded an EC50 of 8 nM.

A further experiment deals with active hMMP-9(cat)_V398A (UniProt P14780 107-449). Put plainly: substrate peptide enzyme inhibition.
Chain of active hMMP-9(cat)_V398A (P14780 107-449 V398A): as the sequence (P14780 107-449) above, with V292A counted along it
Take B2: half-maximal inhibition (IC50) was put at 39 nM.

The molecule B7 came in with an IC50 of 79 nM.

Another experiment has as its target active hMMP-9(cat)_R424T (UniProt P14780 107-449). The experiment can be described thus: substrate peptide enzyme inhibition.
In the case of B2, the IC50 worked out at 31 nM.

Take B7: the IC50 is 45 nM.

The target of another experiment is active hMMP-9(cat)_M422I (UniProt P14780 107-449). The experiment can be described thus: substrate peptide enzyme inhibition.
Chain of active hMMP-9(cat)_M422I (P14780 107-449 M422I): as the sequence (P14780 107-449) above, with M316I counted along it
Molecule B2 had an IC50 of 45 nM.

The molecule B7 showed an IC50 of 43 nM.

The next experiment concerns the target MMP-12 (catalytic domain) (human), (recombinant) (human, UniProt P39900 106-263). Put plainly: enzyme inhibition.
Take B1: the IC50 was above 1000 nM.

Take B2: the IC50 was above 1000 nM.

Take B3: the IC50 was above 1000 nM.

With B4, the IC50 was above 1000 nM.

In the case of B5, the 50% inhibitory concentration (IC50) was above 1000 nM.

In the case of B6, the 50% inhibitory concentration (IC50) was above 1000 nM.

For B7, the IC50 is above 1000 nM.

Turning to B8, the IC50 was above 1000 nM.

Another experiment concerns the target MMP14 Recombinant Protein (human, UniProt P50281 112-287). The experiment can be described thus: enzyme inhibition.
As for B1, the IC50 is above 1000 nM.

B2: the concentration for half-maximal inhibition (IC50) is above 1000 nM.

On to B3, for which the IC50 was above 1000 nM.

For the molecule B4, the IC50 was above 1000 nM.

On to B5, for which the IC50 was above 1000 nM.

For the molecule B6, the IC50 was above 1000 nM.

Regarding B7, the IC50 is above 1000 nM.

Turning to B8, the IC50 was above 1000 nM.

A further experiment addresses APMA-activated human MMP-8 enzyme active domain (human, UniProt P22894 101-262). Put plainly: enzyme inhibition.
Turning to B1, the IC50 is above 1000 nM.

B2 returned an IC50 above 1000 nM.

As for B3, the IC50 is above 1000 nM.

For B4, the IC50 is above 1000 nM.

B5 came in with an IC50 above 1000 nM.

In the case of B6, the IC50 was above 1000 nM.

Turning to B7, the IC50 was above 1000 nM.

Regarding B8, the half-maximal inhibitory concentration (IC50) is above 1000 nM.

For another experiment, the target named is human MMP-3 activated by APMA (human, UniProt P08254 100-477). The experiment can be described thus: enzyme inhibition.
Chain of human MMP-3 activated by APMA (P08254 100-477): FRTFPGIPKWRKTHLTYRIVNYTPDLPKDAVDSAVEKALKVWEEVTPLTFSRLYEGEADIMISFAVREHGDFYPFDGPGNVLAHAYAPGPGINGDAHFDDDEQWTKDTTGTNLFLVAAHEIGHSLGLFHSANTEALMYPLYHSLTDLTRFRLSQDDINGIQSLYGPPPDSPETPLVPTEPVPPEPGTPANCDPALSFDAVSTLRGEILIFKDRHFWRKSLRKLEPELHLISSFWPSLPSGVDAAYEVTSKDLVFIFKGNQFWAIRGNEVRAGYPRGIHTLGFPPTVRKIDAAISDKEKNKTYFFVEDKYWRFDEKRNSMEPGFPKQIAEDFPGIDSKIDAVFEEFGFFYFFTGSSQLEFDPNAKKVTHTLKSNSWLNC
With B1, the half-inhibitory concentration (IC50) is above 1000 nM.

Regarding B2, the IC50 is above 1000 nM.

In turn, B3 gave an IC50 above 1000 nM.

The molecule B4 showed an IC50 above 1000 nM.

B5 yielded an IC50 above 1000 nM.

Molecule B6 showed an IC50 above 1000 nM.

In turn, B7 had an IC50 above 1000 nM.

With B8, the IC50 was above 1000 nM.

Another experiment has as its target T1, Recombinant Human MMP-17 Protein, CF. The experiment can be described thus: enzyme inhibition.
Take B1: the IC50 was above 1000 nM.

Regarding B2, the IC50 was above 1000 nM.

For B3, the IC50 was above 1000 nM.

B4: the IC50 was above 1000 nM.

As for B5, the IC50 is above 1000 nM.

With B6, the IC50 is above 1000 nM.

As for B7, the IC50 is above 1000 nM.

B8: the concentration for half-maximal inhibition (IC50) was above 1000 nM.

The next experiment concerns the target T2, APMA-activated human MMP-1 enzyme …. Put plainly: enzyme inhibition.
In turn, B1 had an IC50 above 1000 nM.

With B2, the IC50 was above 1000 nM.

As to B3, the IC50 was above 1000 nM.

For B4, the IC50 was above 1000 nM.

The molecule B5 displayed an IC50 above 1000 nM.

In turn, B6 displayed an IC50 above 1000 nM.

B7 showed an IC50 above 1000 nM.

B8 registered an IC50 above 1000 nM.

Another experiment addresses APMA-activated human MMP-13 enzyme active domain (human, UniProt P45452 104-274). The experiment can be described thus: enzyme inhibition.
As to B1, the IC50 was above 1000 nM.

Regarding B2, the IC50 was above 1000 nM.

B3 showed an IC50 above 1000 nM.

With B4, the IC50 is above 1000 nM.

In the case of B5, the IC50 was above 1000 nM.

As for B6, the IC50 was above 1000 nM.

In turn, B7 yielded a concentration for half-maximal inhibition (IC50) above 1000 nM.

B8 yielded an IC50 above 1000 nM.

Another experiment concerns the target MT2-MMP, Catalytic Domain, Human, Recombinant, E. coli (human, UniProt P51511 132-304). Put plainly: enzyme inhibition.
On to B1, for which the IC50 is above 1000 nM.

For B2, the IC50 is above 1000 nM.

For B3, the IC50 was above 1000 nM.

B4: the 50% inhibitory concentration (IC50) is above 1000 nM.

With B5, the concentration for half-maximal inhibition (IC50) is above 1000 nM.

As for B6, the half-inhibitory concentration (IC50) was above 1000 nM.

With B7, the IC50 was above 1000 nM.

With B8, the IC50 is above 1000 nM.

In the next experiment the target is MMP-10 (catalytic domain) (human), (recombinant) (human, UniProt P09238 99-266). The experiment can be described thus: enzyme inhibition.
Chain of MMP-10 (catalytic domain) (human), (recombinant) (P09238 99-266): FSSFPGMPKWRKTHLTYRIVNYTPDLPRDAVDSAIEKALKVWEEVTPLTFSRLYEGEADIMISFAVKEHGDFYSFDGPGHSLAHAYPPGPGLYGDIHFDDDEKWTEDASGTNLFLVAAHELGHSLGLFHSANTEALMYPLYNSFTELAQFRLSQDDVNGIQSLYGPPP
Take B1: the concentration for half-maximal inhibition (IC50) is above 1000 nM.

Turning to B2, the IC50 was above 1000 nM.

On to B3, for which the IC50 is above 1000 nM.

For the molecule B4, the 50% inhibitory concentration (IC50) is above 1000 nM.

In the case of B5, the IC50 is above 1000 nM.

With B6, the IC50 was above 1000 nM.

B7: the IC50 is above 1000 nM.

With B8, the IC50 is above 1000 nM.

For a further experiment, the target named is T3, ADAM17 (catalytic domain) (human), …. Put plainly: enzyme inhibition.
Regarding B1, the IC50 was above 1000 nM.

Take B2: the IC50 is above 1000 nM.

On to B3, for which the IC50 was above 1000 nM.

Consider B4, for which the IC50 was above 1000 nM.

With B5, the half-maximal inhibitory concentration (IC50) is above 1000 nM.

Take B6: the IC50 is above 1000 nM.

Consider B7, for which the IC50 is above 1000 nM.

Consider B8, for which the IC50 was above 1000 nM.

The target in another experiment is T4, MMP-2, active, Human, Recombinant, CHO …. Put plainly: enzyme inhibition.
Turning to B1, the IC50 was above 1000 nM.

Take B2: the IC50 is above 1000 nM.

In the case of B3, the IC50 was above 1000 nM.

As for B4, the IC50 is above 1000 nM.

Consider B5, for which the IC50 is above 1000 nM.

In the case of B6, the IC50 was above 1000 nM.

Turning to B7, the IC50 is above 1000 nM.

For the molecule B8, the IC50 is above 1000 nM.

A further experiment addresses active hMMP-9(cat)_His6 (UniProt P14780 107-449). The experiment can be described thus: enzyme inhibition; substrate peptide.
On to B1, for which the Ki was 1.2 nM.

Molecule B2 displayed a Ki of 1.4 nM.

B3 registered an inhibition constant Ki of 2.1 nM.

B4 had an inhibition constant Ki of 2.6 nM.

Molecule B5 returned an inhibition constant Ki of 1.2 nM.

Molecule B6 displayed a Ki of 2.3 nM.

As for B7, affinity was put at a Ki of 1.6 nM.

As to B8, the Ki came to 0.45 nM.

These data come from US20200231654A1 (published 2020).
